Experiment [1] addresses Neuronal precursor cell expressed developmentally downregulated 4-2 (NEDD4-2) (mouse (endogenous in hippocampus)) (UniProt Q8CFI0). In words: co-IP; mouse hippocampal tissue lysed in RIPA buffer with protease and phosphatase inhibitors; equal protein incubated with NEDD4-2, ubiquitin or GluA1 antibody and protein G sepharose at 4 °C overnight; western blot; WT, PLPP/CIN^-/- and PLPP/CIN^Tg mice, saline or KA (25 mg/kg, 2 h), control or NEDD4-2 siRNA. For orientation: A western blot detects proteins with antibodies after separation by electrophoresis.

Experiment [2] has as its target T1, Neuronal precursor cell expressed developmentally downregulated 4-2 (NEDD4-2) (mouse (endogenous in hippocampus), UniProt Q8CFI0 1-1004).
T1 construct: NEDD4-2 E3 ubiquitin ligase, endogenous in mouse hippocampus; S222 and S328 in murine NEDD4-2; source: endogenous, mouse hippocampal tissue lysate (RIPA buffer)
T1 sequence (looked up): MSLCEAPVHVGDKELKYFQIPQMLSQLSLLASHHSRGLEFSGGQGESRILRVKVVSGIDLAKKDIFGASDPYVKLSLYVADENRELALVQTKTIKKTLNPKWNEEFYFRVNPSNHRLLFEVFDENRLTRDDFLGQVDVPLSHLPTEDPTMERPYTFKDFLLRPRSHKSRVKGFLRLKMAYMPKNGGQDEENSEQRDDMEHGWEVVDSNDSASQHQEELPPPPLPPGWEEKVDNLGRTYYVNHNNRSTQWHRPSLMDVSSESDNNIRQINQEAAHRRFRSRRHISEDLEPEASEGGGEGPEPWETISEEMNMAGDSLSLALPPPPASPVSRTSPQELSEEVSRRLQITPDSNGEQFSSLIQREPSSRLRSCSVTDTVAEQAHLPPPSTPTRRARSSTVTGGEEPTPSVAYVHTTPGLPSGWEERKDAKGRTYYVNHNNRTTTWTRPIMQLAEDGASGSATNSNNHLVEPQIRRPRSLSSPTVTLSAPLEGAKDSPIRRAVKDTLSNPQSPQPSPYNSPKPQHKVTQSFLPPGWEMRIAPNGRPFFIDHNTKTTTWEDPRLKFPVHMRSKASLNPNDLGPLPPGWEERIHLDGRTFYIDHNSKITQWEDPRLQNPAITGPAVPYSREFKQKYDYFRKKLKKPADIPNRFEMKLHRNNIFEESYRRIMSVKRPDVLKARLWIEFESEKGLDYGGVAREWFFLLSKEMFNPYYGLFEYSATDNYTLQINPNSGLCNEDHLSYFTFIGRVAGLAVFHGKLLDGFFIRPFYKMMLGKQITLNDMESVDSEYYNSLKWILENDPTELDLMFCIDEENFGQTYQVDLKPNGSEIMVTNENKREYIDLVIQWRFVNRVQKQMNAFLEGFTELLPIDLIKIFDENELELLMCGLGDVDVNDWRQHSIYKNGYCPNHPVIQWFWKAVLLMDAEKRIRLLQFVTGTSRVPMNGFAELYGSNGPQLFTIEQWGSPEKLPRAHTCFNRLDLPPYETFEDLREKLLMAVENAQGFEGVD
The experiment is described as above. The settings on record: partners not purified.

The target of experiment [3] is T2, full-length recombinant human NEDD4-2, phosphorylated by SGK1 (human, UniProt Q96PU5 1-975, phosphorylated by incubation with 200 U/μl SGK1 and 100 μM ATP (S342 and S448 phosphorylation followed by western blot)).
T2 construct: human NEDD4-2, full-length recombinant protein (Abcam); SGK1 and ATP were still in the sample when PLPP/CIN was added; source: bought: Abcam; phosphorylated in vitro with SGK1 (SignalChem) and ATP
T2 sequence (looked up): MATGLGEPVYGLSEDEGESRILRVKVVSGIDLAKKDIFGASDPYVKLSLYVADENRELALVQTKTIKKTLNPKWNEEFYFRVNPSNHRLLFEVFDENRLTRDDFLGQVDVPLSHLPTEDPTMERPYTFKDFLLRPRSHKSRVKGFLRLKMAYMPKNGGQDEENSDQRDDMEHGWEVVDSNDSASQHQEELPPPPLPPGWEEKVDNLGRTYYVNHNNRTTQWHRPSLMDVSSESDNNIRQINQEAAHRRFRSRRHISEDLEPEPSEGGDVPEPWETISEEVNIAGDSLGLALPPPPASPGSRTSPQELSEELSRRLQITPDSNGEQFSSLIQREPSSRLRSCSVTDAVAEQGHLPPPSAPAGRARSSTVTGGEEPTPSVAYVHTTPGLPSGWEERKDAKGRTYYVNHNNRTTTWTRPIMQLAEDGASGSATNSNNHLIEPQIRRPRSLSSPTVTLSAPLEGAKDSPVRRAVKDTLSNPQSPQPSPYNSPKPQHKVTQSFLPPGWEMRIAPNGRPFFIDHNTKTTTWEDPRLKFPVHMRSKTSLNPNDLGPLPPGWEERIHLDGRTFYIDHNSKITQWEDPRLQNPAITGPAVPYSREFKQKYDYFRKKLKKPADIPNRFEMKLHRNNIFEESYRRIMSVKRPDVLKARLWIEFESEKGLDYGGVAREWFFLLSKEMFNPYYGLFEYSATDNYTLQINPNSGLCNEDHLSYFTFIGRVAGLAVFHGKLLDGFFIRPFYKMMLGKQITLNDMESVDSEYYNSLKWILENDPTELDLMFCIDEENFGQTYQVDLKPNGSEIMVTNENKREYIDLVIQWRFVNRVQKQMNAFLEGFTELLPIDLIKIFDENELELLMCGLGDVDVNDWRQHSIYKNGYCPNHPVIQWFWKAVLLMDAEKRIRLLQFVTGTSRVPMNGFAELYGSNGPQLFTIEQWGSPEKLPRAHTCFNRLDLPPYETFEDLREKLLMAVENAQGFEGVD
In words: co-IP; in vitro with recombinant proteins: NEDD4-2 (10 ng/μl) phosphorylated with 200 U/μl SGK1 and 100 μM ATP in kinase assay buffer I at 30 °C for 1 h, then PLPP/CIN (10 ng/μl) added, 30 °C for 1 h; coprecipitation and western blot. The conditions noted are these: both partners purified.

In turn, “PLPP/CIN in PLPP/CIN transgenic (PLPP/CIN^Tg) mice (from UniProt P60487 1-292)” had a fold of the binding in WT mice in experiment [1] of 1.4 fold.

B1: Pyridoxal-5'-phosphate phosphatase/chronophin (PLPP/CIN) (enzyme, mouse (endogenous in hippocampus), UniProt P60487 1-292, looked up)
chain: MARCERLRGAALRDVLGQAQGVLFDCDGVLWNGERIVPGAPELLQRLARAGKNTLFVSNNSRRARPELALRFARLGFAGLRAEQLFSSALCAARLLRQRLSGPPDASGAVFVLGGEGLRAELRAAGLRLAGDPGEDPRVRAVLVGYDEQFSFSRLTEACAHLRDPDCLLVATDRDPWHPLSDGSRTPGTGSLAAAVETASGRQALVVGKPSPYMFQCITEDFSVDPARTLMVGDRLETDILFGHRCGMTTVLTLTGVSSLEEAQAYLTAGQRDLVPHYYVESIADLMEGLED
notes: Pyridoxal-5'-phosphate phosphatase/chronophin, endogenous in the hippocampus of WT mice; source: endogenous, mouse hippocampal tissue lysate (RIPA buffer)
Take B1: the “fold of control level (2 h after KA, WT mice)” value in experiment [2] was approximately 1.4 fold.

B2: recombinant human PLPP/CIN protein (enzyme, UniProt Q96GD0 1-296, looked up)
chain: MARCERLRGAALRDVLGRAQGVLFDCDGVLWNGERAVPGAPELLERLARAGKAALFVSNNSRRARPELALRFARLGFGGLRAEQLFSSALCAARLLRQRLPGPPDAPGAVFVLGGEGLRAELRAAGLRLAGDPSAGDGAAPRVRAVLVGYDEHFSFAKLREACAHLRDPECLLVATDRDPWHPLSDGSRTPGTGSLAAAVETASGRQALVVGKPSPYMFECITENFSIDPARTLMVGDRLETDILFGHRCGMTTVLTLTGVSRLEEAQAYLAAGQHDLVPHYYVESIADLTEGLED
notes: human pyridoxal-5'-phosphate phosphatase/chronophin, recombinant protein (Abcam); The sentence reads 'full-length recombinant human NEDD4-2 (Abcam, UK) and human PLPP/CIN proteins'; whether 'full-length' also covers PLPP/CIN is not clear; source: bought: Abcam
In the case of B2, the binding result in experiment [3] was “binds”.
